First the molecules themselves.
B1: Far upstream element-binding protein 2, residues 142 to 214; numbered along this chain, Q92945 (parent)
chain: RTSMTEEYRVPDGMVGLIIGRGGEQINKIQQDSGCKVQISPDSGGLPERSVSLTGAPESVQKAKMMLDDIVSR

± gives the uncertainty stated by the source.

Variants of B1 are the subject of this series. Description: abundance fitness (aPCA) (normalised: wild type 0, dead -1); higher = more abundant; growth selection in yeast, the domain comes from the species named. The settings on record: Homo sapiens.
On to RTSMTEEYRVPDGMVGLIIGYGGEQINKIQQDSGCKVQISPDSGGLPERSVSLTGAPESVQKAKMMLDDIVSR, for which the abundance fitness was -0.148 ± 0.06.
To RTSMTEEYRVPDGMVGLIIGRGTEQINKIQQDSGCKVQISPDSGGLPERSVSLTGAPESVQKAKMMLDDIVSR belongs -0.27 ± 0.067.
In the case of RTSMTEEYRVPDGMVGLIIGRGWEQINKIQQDSGCKVQISPDSGGLPERSVSLTGAPESVQKAKMMLDDIVSR it was -0.32 ± 0.051.
Consider RTSMTEEYRVPDGMVGLIIGRGCEQINKIQQDSGCKVQISPDSGGLPERSVSLTGAPESVQKAKMMLDDIVSR, for which the abundance fitness is -0.212 ± 0.065.
On to RTSMTEEYRVPDGMVGLIIGRGPEQINKIQQDSGCKVQISPDSGGLPERSVSLTGAPESVQKAKMMLDDIVSR, for which the abundance fitness is -0.314 ± 0.059.
In the case of RTSMTEEYRVPDGMVGLIIGRGQEQINKIQQDSGCKVQISPDSGGLPERSVSLTGAPESVQKAKMMLDDIVSR, the abundance fitness is -0.126 ± 0.064.
To RTSMTEEYRVPDGMVGLIIGRGYEQINKIQQDSGCKVQISPDSGGLPERSVSLTGAPESVQKAKMMLDDIVSR belongs -0.393 ± 0.2; to RTSMTEEYRVPDGMVGLIIGRGKEQINKIQQDSGCKVQISPDSGGLPERSVSLTGAPESVQKAKMMLDDIVSR, -0.177 ± 0.068; to RTSMTEEYRVPDGMVGLIIGRGSEQINKIQQDSGCKVQISPDSGGLPERSVSLTGAPESVQKAKMMLDDIVSR, -0.178 ± 0.05.
To RTSMTEEYRVPDGMVGLIIGRGAEQINKIQQDSGCKVQISPDSGGLPERSVSLTGAPESVQKAKMMLDDIVSR belongs -0.149 ± 0.048; to RTSMTEEYRVPDGMVGLIIGRGVEQINKIQQDSGCKVQISPDSGGLPERSVSLTGAPESVQKAKMMLDDIVSR, -0.257 ± 0.047.
To RTSMTEEYRVPDGMVGLIIGRGNEQINKIQQDSGCKVQISPDSGGLPERSVSLTGAPESVQKAKMMLDDIVSR belongs -0.241 ± 0.12; to RTSMTEEYRVPDGMVGLIIGRGFEQINKIQQDSGCKVQISPDSGGLPERSVSLTGAPESVQKAKMMLDDIVSR, -0.3 ± 0.11; to RTSMTEEYRVPDGMVGLIIGRGREQINKIQQDSGCKVQISPDSGGLPERSVSLTGAPESVQKAKMMLDDIVSR, -0.11 ± 0.039.
As for RTSMTEEYRVPDGMVGLIIGRGLEQINKIQQDSGCKVQISPDSGGLPERSVSLTGAPESVQKAKMMLDDIVSR, the abundance fitness is -0.169 ± 0.049.
In the case of RTSMTEEYRVPDGMVGLIIGRGMEQINKIQQDSGCKVQISPDSGGLPERSVSLTGAPESVQKAKMMLDDIVSR, the abundance fitness is -0.141 ± 0.07.
In the case of RTSMTEEYRVPDGMVGLIIGRGDEQINKIQQDSGCKVQISPDSGGLPERSVSLTGAPESVQKAKMMLDDIVSR it was -0.187 ± 0.084; in that of RTSMTEEYRVPDGMVGLIIGRGGGQINKIQQDSGCKVQISPDSGGLPERSVSLTGAPESVQKAKMMLDDIVSR, -0.215 ± 0.039; in that of RTSMTEEYRVPDGMVGLIIGRGGYQINKIQQDSGCKVQISPDSGGLPERSVSLTGAPESVQKAKMMLDDIVSR, 0.05 ± 0.11.
In the case of RTSMTEEYRVPDGMVGLIIGRGGAQINKIQQDSGCKVQISPDSGGLPERSVSLTGAPESVQKAKMMLDDIVSR, the abundance fitness was -0.112 ± 0.045.
In the case of RTSMTEEYRVPDGMVGLIIGRGGTQINKIQQDSGCKVQISPDSGGLPERSVSLTGAPESVQKAKMMLDDIVSR it was -0.071 ± 0.058; in that of RTSMTEEYRVPDGMVGLIIGRGGFQINKIQQDSGCKVQISPDSGGLPERSVSLTGAPESVQKAKMMLDDIVSR, -0.03 ± 0.086.
In the case of RTSMTEEYRVPDGMVGLIIGRGGIQINKIQQDSGCKVQISPDSGGLPERSVSLTGAPESVQKAKMMLDDIVSR it was -0.251 ± 0.11; in that of RTSMTEEYRVPDGMVGLIIGRGGLQINKIQQDSGCKVQISPDSGGLPERSVSLTGAPESVQKAKMMLDDIVSR, -0.199 ± 0.047.
To RTSMTEEYRVPDGMVGLIIGRGGPQINKIQQDSGCKVQISPDSGGLPERSVSLTGAPESVQKAKMMLDDIVSR belongs -0.797 ± 0.071; to RTSMTEEYRVPDGMVGLIIGRGGVQINKIQQDSGCKVQISPDSGGLPERSVSLTGAPESVQKAKMMLDDIVSR, -0.092 ± 0.042.
In the case of RTSMTEEYRVPDGMVGLIIGRGGDQINKIQQDSGCKVQISPDSGGLPERSVSLTGAPESVQKAKMMLDDIVSR, the abundance fitness was -0.104 ± 0.067.
As for RTSMTEEYRVPDGMVGLIIGRGGRQINKIQQDSGCKVQISPDSGGLPERSVSLTGAPESVQKAKMMLDDIVSR, the abundance fitness was -0.03 ± 0.04.
In the case of RTSMTEEYRVPDGMVGLIIGRGGKQINKIQQDSGCKVQISPDSGGLPERSVSLTGAPESVQKAKMMLDDIVSR it was -0.078 ± 0.058; in that of RTSMTEEYRVPDGMVGLIIGRGGHQINKIQQDSGCKVQISPDSGGLPERSVSLTGAPESVQKAKMMLDDIVSR, -0.019 ± 0.09.
In the case of RTSMTEEYRVPDGMVGLIIGRGGSQINKIQQDSGCKVQISPDSGGLPERSVSLTGAPESVQKAKMMLDDIVSR it was -0.076 ± 0.047; in that of RTSMTEEYRVPDGMVGLIIGRGGMQINKIQQDSGCKVQISPDSGGLPERSVSLTGAPESVQKAKMMLDDIVSR, -0.059 ± 0.069; in that of RTSMTEEYRVPDGMVGLIIGRGGNQINKIQQDSGCKVQISPDSGGLPERSVSLTGAPESVQKAKMMLDDIVSR, -0.106 ± 0.11.
For RTSMTEEYRVPDGMVGLIIGRGGWQINKIQQDSGCKVQISPDSGGLPERSVSLTGAPESVQKAKMMLDDIVSR, the abundance fitness was found to be 0.666 ± 0.048.
In the case of RTSMTEEYRVPDGMVGLIIGRGGEQCNKIQQDSGCKVQISPDSGGLPERSVSLTGAPESVQKAKMMLDDIVSR it was -0.524 ± 0.29; in that of RTSMTEEYRVPDGMVGLIIGRGGEQANKIQQDSGCKVQISPDSGGLPERSVSLTGAPESVQKAKMMLDDIVSR, -0.394 ± 0.048; in that of RTSMTEEYRVPDGMVGLIIGRGGEQDNKIQQDSGCKVQISPDSGGLPERSVSLTGAPESVQKAKMMLDDIVSR, -0.549 ± 0.082.
To RTSMTEEYRVPDGMVGLIIGRGGEQENKIQQDSGCKVQISPDSGGLPERSVSLTGAPESVQKAKMMLDDIVSR belongs -0.685 ± 0.061.

The record behind these values is the Human Domainome abundance scans (Beltran et al. 2025).
